We go through 1 molecule from paper PMC12752606, “METTL10‐Mediated PIAS3 Methylation Links Purine Metabolism to Gastric Cancer Progression” (Advanced Science, 2025).

The target in the assay is T1, GST-PIAS3 (UniProt Q9Y6X2 1-628).
T1 construct: PIAS3; also called bacterially expressed PIAS3; source: E. coli BL21, purified (Glutathione Agarose Resin)
T1 sequence (looked up): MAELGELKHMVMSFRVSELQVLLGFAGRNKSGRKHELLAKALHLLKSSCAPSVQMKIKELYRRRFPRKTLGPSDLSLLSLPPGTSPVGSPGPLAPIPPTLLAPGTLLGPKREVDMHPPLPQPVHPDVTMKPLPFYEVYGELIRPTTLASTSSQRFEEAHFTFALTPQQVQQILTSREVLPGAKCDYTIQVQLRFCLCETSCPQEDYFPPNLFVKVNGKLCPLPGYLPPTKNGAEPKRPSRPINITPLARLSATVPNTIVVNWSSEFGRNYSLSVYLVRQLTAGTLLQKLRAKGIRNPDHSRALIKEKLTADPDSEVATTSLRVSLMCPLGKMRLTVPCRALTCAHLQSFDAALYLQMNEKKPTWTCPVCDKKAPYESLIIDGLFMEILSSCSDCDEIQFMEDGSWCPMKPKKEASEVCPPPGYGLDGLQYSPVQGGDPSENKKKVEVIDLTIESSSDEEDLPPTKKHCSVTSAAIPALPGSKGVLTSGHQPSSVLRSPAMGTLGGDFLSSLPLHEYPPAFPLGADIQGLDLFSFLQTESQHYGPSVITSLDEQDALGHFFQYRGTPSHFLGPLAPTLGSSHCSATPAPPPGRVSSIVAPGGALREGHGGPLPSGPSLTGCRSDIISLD
In words: pull-down; purified GST or GST-PIAS3 incubated with purified His-METTL10 in 25 mM Tris-HCl pH 8.0, 150 mM NaCl, 4 °C overnight; Glutathione Agarose Resin; eluted with 10 mM reduced glutathione. As to conditions: both partners purified.

B1: His-METTL10 (enzyme)
chain: not shown
notes: METTL10 (EEF1AKMT2); also called bacterially expressed METTL10; source: E. coli BL21, purified (Ni-NTA resin)
With B1, the binding result is given as “binds”.
